This assay deals with S protein of SARS-CoV-2 wild strain JPN/TY/WK-521 (on infectious virus) (SARS-CoV-2, UniProt P0DTC2 14-1273). In words: cell-based or functional assay.

B1: EV053273 (antibody, V domains shown)
VH: QVQLVQSGAEVKEPGTSVKVSCKASGYIFTGYYIHWVRQAPGQGLEWMGWINPNSGGRNYTQKFQGRVTMTRDKSISTVYMELSGLRSDDTAIYYCARDNSWSTVQFCLDYWGQGTLVTVSS
VL: QSALTQPPSASGSPGQSVTISCTGTSSDVGSYNYVSWYQQYPGKAPKLMIYEVSKRPSGVPDRFSGSKSGNTASLTVSGLQAEDEADYYCSSYGGSNNLVFGGGTKLTVLG
Regarding B1, the “中和活性 IC50 (inhibition of infection of VeroE6/TMPRSS2 cells)” value is no more than 10 ng/mL.

(Values after patent publication WO2022250107A1 (dated 2022).)
